The target of test [1] is UBE2L3 (Homo sapiens) (UniProt P68036). Kind of test: SPR. The note with it: cited from earlier work.
The target in test [2] is MuRF1 in fusion with the binding domain of GAL4 (pBridge, MCS I) (rat) (UniProt Q91Z63). Kind of test: two-hybrid; Matchmaker Gold yeast two-hybrid; MuRF1 alone as GAL4 binding-domain fusion, preys in pGADT7; growth of diploid clones on -LTH + Aureobasidin A + 3-AT followed over 21 days.
Test [3] shares this target. Kind of test: two-hybrid; yeast three-hybrid; pBridge::MuRF1/MHCIIa (MuRF1 GAL4 binding-domain fusion with MHCIIa residues 1–255 co-expressed from MCSII), preys in pGADT7; growth on -LTH + Aureobasidin A + 3-AT followed over 21 days.

For the substance MuRF1 (from UniProt Q969Q1), the Kd in test [1] is 0.05 µM.

As for “UBE2E1 in pGADT7 (GAL4 activation domain fusion) (from UniProt P52482 1-193) (enzyme)”, the percentage of clones grown on selective media in test [2] and in test [3] was 80% each time.

Values taken from PMC8392593.
